Reference: patent publication EP1313846B1

Molecular target: Savinase® (subtilisin 309) (UniProt P29600)
Test: cell-based or functional assay

Sequence of UniProt P29600 (P29600 whole entry): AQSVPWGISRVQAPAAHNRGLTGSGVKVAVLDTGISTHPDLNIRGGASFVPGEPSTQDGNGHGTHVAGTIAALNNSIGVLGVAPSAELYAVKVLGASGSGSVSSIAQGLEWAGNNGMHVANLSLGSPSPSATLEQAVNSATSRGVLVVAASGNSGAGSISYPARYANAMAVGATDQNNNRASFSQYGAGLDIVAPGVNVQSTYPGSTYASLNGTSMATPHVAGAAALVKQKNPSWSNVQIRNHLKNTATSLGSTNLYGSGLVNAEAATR

- RA (%) (Residual Activity, Ovo-inhibition Assay; hydrolysis of Suc-Ala-Ala-Pro-Phe-pNA with and without inhibitor): < 5%
Substance: trypsin inhibitor type IV-0 (Ovo-inhibitor), Sigma T-1886 (from UniProt P10184 69-517)
